Measurements taken from paper PMC10540216, “Activity Guided Azide-methyllysine Photo-trapping for Substrate Profiling of Lysine Demethylases” (Journal of the American Chemical Society, 2023).

B1: SND1_HUMAN (protein, UniProt Q7KZF4 2-910, looked up)
Staphylococcal nuclease …: ASSAQSGGSSGGPAVPTVQRGIIKMVLSGCAIIVRGQPRGGPPPERQINLSNIRAGNLARRAAATQPDAKDTPDEPWAFPAREFLRKKLIGKEVCFTIENKTPQGREYGMIYLGKDTNGENIAESLVAEGLATRREGMRANNPEQNRLSECEEQAKAAKKGMWSEGNGSHTIRDLKYTIENPRHFVDSHHQKPVNAIIEHVRDGSVVRALLLPDYYLVTVMLSGIKCPTFRREADGSETPEPFAAEAKFFTESRLLQRDVQIILESCHNQNILGTILHPNGNITELLLKEGFARCVDWSIAVYTRGAEKLRAAERFAKERRLRIWRDYVAPTANLDQKDKQFVAKVMQVLNADAIVVKLNSGDYKTIHLSSIRPPRLEGENTQDKNKKLRPLYDIPYMFEAREFLRKKLIGKKVNVTVDYIRPASPATETVPAFSERTCATVTIGGINIAEALVSKGLATVIRYRQDDDQRSSHYDELLAAEARAIKNGKGLHSKKEVPIHRVADISGDTQKAKQFLPFLQRAGRSEAVVEYVFSGSRLKLYLPKETCLITFLLAGIECPRGARNLPGLVQEGEPFSEEATLFTKELVLQREVEVEVESMDKAGNFIGWLHIDGANLSVLLVEHALSKVHFTAERSSYYKSLLSAEEAAKQKKEKVWAHYEEQPVEEVMPVLEEKERSASYKPVFVTEITDDLHFYVQDVETGTQLEKLMENMRNDIASHPPVEGSYAPRRGEFCIAKFVDGEWYRARVEKVESPAKIHVFYIDYGNREVLPSTRLGTLSPAFSTRVLPAQATEYAFAFIQVPQDDDARTDAVDSVVRDIQNTQCLLNVEHLSAGCPHVTLQFADSKGDVGLGLVKEGLVMVEVRKEKQFQKVITEYLNAQESAKSARLNLWRYGDFRADDADEFGYSR
B2: TOP1_HUMAN (protein, UniProt P11387 2-765, looked up)
DNA topoisomerase 1: SGDHLHNDSQIEADFRLNDSHKHKDKHKDREHRHKEHKKEKDREKSKHSNSEHKDSEKKHKEKEKTKHKDGSSEKHKDKHKDRDKEKRKEEKVRASGDAKIKKEKENGFSSPPQIKDEPEDDGYFVPPKEDIKPLKRPRDEDDADYKPKKIKTEDTKKEKKRKLEEEEDGKLKKPKNKDKDKKVPEPDNKKKKPKKEEEQKWKWWEEERYPEGIKWKFLEHKGPVFAPPYEPLPENVKFYYDGKVMKLSPKAEEVATFFAKMLDHEYTTKEIFRKNFFKDWRKEMTNEEKNIITNLSKCDFTQMSQYFKAQTEARKQMSKEEKLKIKEENEKLLKEYGFCIMDNHKERIANFKIEPPGLFRGRGNHPKMGMLKRRIMPEDIIINCSKDAKVPSPPPGHKWKEVRHDNKVTWLVSWTENIQGSIKYIMLNPSSRIKGEKDWQKYETARRLKKCVDKIRNQYREDWKSKEMKVRQRAVALYFIDKLALRAGNEKEEGETADTVGCCSLRVEHINLHPELDGQEYVVEFDFLGKDSIRYYNKVPVEKRVFKNLQLFMENKQPEDDLFDRLNTGILNKHLQDLMEGLTAKVFRTYNASITLQQQLKELTAPDENIPAKILSYNRANRAVAILCNHQRAPPKTFEKSMMNLQTKIDAKKEQLADARRDLKSAKADAKVMKDAKTKKVVESKKKAVQRLEEQLMKLEVQATDREENKQIALGTSKLNYLDPRITVAWCKKWGVPIEKIYNKTQREKFAWAIDMADEDYEF
B3: HXK1_HUMAN (protein, UniProt P19367 1-917, looked up)
Hexokinase-1: MIAAQLLAYYFTELKDDQVKKIDKYLYAMRLSDETLIDIMTRFRKEMKNGLSRDFNPTATVKMLPTFVRSIPDGSEKGDFIALDLGGSSFRILRVQVNHEKNQNVHMESEVYDTPENIVHGSGSQLFDHVAECLGDFMEKRKIKDKKLPVGFTFSFPCQQSKIDEAILITWTKRFKASGVEGADVVKLLNKAIKKRGDYDANIVAVVNDTVGTMMTCGYDDQHCEVGLIIGTGTNACYMEELRHIDLVEGDEGRMCINTEWGAFGDDGSLEDIRTEFDREIDRGSLNPGKQLFEKMVSGMYLGELVRLILVKMAKEGLLFEGRITPELLTRGKFNTSDVSAIEKNKEGLHNAKEILTRLGVEPSDDDCVSVQHVCTIVSFRSANLVAATLGAILNRLRDNKGTPRLRTTVGVDGSLYKTHPQYSRRFHKTLRRLVPDSDVRFLLSESGSGKGAAMVTAVAYRLAEQHRQIEETLAHFHLTKDMLLEVKKRMRAEMELGLRKQTHNNAVVKMLPSFVRRTPDGTENGDFLALDLGGTNFRVLLVKIRSGKKRTVEMHNKIYAIPIEIMQGTGEELFDHIVSCISDFLDYMGIKGPRMPLGFTFSFPCQQTSLDAGILITWTKGFKATDCVGHDVVTLLRDAIKRREEFDLDVVAVVNDTVGTMMTCAYEEPTCEVGLIVGTGSNACYMEEMKNVEMVEGDQGQMCINMEWGAFGDNGCLDDIRTHYDRLVDEYSLNAGKQRYEKMISGMYLGEIVRNILIDFTKKGFLFRGQISETLKTRGIFETKFLSQIESDRLALLQVRAILQQLGLNSTCDDSILVKTVCGVVSRRAAQLCGAGMAAVVDKIRENRGLDRLNVTVGVDGTLYKLHPHFSRIMHQTVKELSPKCNVSFLLSEDGSGKGAALITAVGVRLRTEASS
B4: PNPT1_HUMAN (protein, UniProt Q8TCS8 46-783, looked up)
Polyribonucleotide …: AVAVDLGNRKLEISSGKLARFADGSAVVQSGDTAVMVTAVSKTKPSPSQFMPLVVDYRQKAAAAGRIPTNYLRREIGTSDKEILTSRIIDRSIRPLFPAGYFYDTQVLCNLLAVDGVNEPDVLAINGASVALSLSDIPWNGPVGAVRIGIIDGEYVVNPTRKEMSSSTLNLVVAGAPKSQIVMLEASAENILQQDFCHAIKVGVKYTQQIIQGIQQLVKETGVTKRTPQKLFTPSPEIVKYTHKLAMERLYAVFTDYEHDKVSRDEAVNKIRLDTEEQLKEKFPEADPYEIIESFNVVAKEVFRSIVLNEYKRCDGRDLTSLRNVSCEVDMFKTLHGSALFQRGQTQVLCTVTFDSLESGIKSDQVITAINGIKDKNFMLHYEFPPYATNEIGKVTGLNRRELGHGALAEKALYPVIPRDFPFTIRVTSEVLESNGSSSMASACGGSLALMDSGVPISSAVAGVAIGLVTKTDPEKGEIEDYRLLTDILGIEDYNGDMDFKIAGTNKGITALQADIKLPGIPIKIVMEAIQQASVAKKEILQIMNKTISKPRASRKENGPVVETVQVPLSKRAKFVGPGGYNLKKLQAETGVTISQVDEETFSVFAPTPSAMHEARDFITEICKDDQEQQLEFGAVYTATITEIRDTGVMVKLYPNMTAVLLHNTQLDQRKIKHPTALGLEVGQEIQVKYFGRDPADGRMRLSRKVLQSPATTVVRTLNDRSSIVMGEPISQSSSNSQ
B5: ACON_HUMAN (protein, UniProt Q99798 28-780, looked up)
Aconitate hydratase, …: QRAKVAMSHFEPNEYIHYDLLEKNINIVRKRLNRPLTLSEKIVYGHLDDPASQEIERGKSYLRLRPDRVAMQDATAQMAMLQFISSGLSKVAVPSTIHCDHLIEAQVGGEKDLRRAKDINQEVYNFLATAGAKYGVGFWKPGSGIIHQIILENYAYPGVLLIGTDSHTPNGGGLGGICIGVGGADAVDVMAGIPWELKCPKVIGVKLTGSLSGWSSPKDVILKVAGILTVKGGTGAIVEYHGPGVDSISCTGMATICNMGAEIGATTSVFPYNHRMKKYLSKTGREDIANLADEFKDHLVPDPGCHYDQLIEINLSELKPHINGPFTPDLAHPVAEVGKVAEKEGWPLDIRVGLIGSCTNSSYEDMGRSAAVAKQALAHGLKCKSQFTITPGSEQIRATIERDGYAQILRDLGGIVLANACGPCIGQWDRKDIKKGEKNTIVTSYNRNFTGRNDANPETHAFVTSPEIVTALAIAGTLKFNPETDYLTGTDGKKFRLEAPDADELPKGEFDPGQDTYQHPPKDSSGQHVDVSPTSQRLQLLEPFDKWDGKDLEDLQILIKVKGKCTTDHISAAGPWLKFRGHLDNISNNLLIGAINIENGKANSVRNAVTQEFGPVPDTARYYKKHGIRWVVIGDENYGEGSSREHAALEPRHLGGRAIITKSFARIHETNLKKQGLLPLTFADPADYNKIHPVDKLTIQGLKDFTPGKPLKCIIKHPNGTQETILLNHTFNETQIEWFRAGSALNRMKELQQ
B6: SYDM_HUMAN (protein, UniProt Q6PI48 48-645, looked up)
Aspartate--tRNA ligase, …: VVRTNTCGELRSSHLGQEVTLCGWIQYRRQNTFLVLRDFDGLVQVIIPQDESAASVKKILCEAPVESVVQVSGTVISRPAGQENPKMPTGEIEIKVKTAELLNACKKLPFEIKNFVKKTEALRLQYRYLDLRSFQMQYNLRLRSQMVMKMREYLCNLHGFVDIETPTLFKRTPGGAKEFLVPSREPGKFYSLPQSPQQFKQLLMVGGLDRYFQVARCYRDEGSRPDRQPEFTQIDIEMSFVDQTGIQSLIEGLLQYSWPNDKDPVVVPFPTMTFAEVLATYGTDKPDTRFGMKIIDISDVFRNTEIGFLQDALSKPHGTVKAICIPEGAKYLKRKDIESIRNFAADHFNQEILPVFLNANRNWNSPVANFIMESQRLELIRLMETQEEDVVLLTAGEHNKACSLLGKLRLECADLLETRGVVLRDPTLFSFLWVVDFPLFLPKEENPRELESAHHPFTAPHPSDIHLLYTEPKKARSQHYDLVLNGNEIGGGSIRIHNAELQRYILATLLKEDVKMLSHLLQALDYGAPPHGGIALGLDRLICLVTGSPSIRDVIAFPKSFRGHDLMSNTPDSVPPEELKPYHIRVSKPTDSKAERAH
B7: DC1I2_HUMAN (protein, UniProt Q13409 2-638, looked up)
Cytoplasmic dynein 1 …: SDKSELKAELERKKQRLAQIREEKKRKEEERKKKETDQKKEAVAPVQEESDLEKKRREAEALLQSMGLTPESPIVFSEYWVPPPMSPSSKSVSTPSEAGSQDSGDGAVGSRTLHWDTDPSVLQLHSDSDLGRGPIKLGMAKITQVDFPPREIVTYTKETQTPVMAQPKEDEEEDDDVVAPKPPIEPEEEKTLKKDEENDSKAPPHELTEEEKQQILHSEEFLSFFDHSTRIVERALSEQINIFFDYSGRDLEDKEGEIQAGAKLSLNRQFFDERWSKHRVVSCLDWSSQYPELLVASYNNNEDAPHEPDGVALVWNMKYKKTTPEYVFHCQSAVMSATFAKFHPNLVVGGTYSGQIVLWDNRSNKRTPVQRTPLSAAAHTHPVYCVNVVGTQNAHNLISISTDGKICSWSLDMLSHPQDSMELVHKQSKAVAVTSMSFPVGDVNNFVVGSEEGSVYTACRHGSKAGISEMFEGHQGPITGIHCHAAVGAVDFSHLFVTSSFDWTVKLWTTKNNKPLYSFEDNADYVYDVMWSPTHPALFACVDGMGRLDLWNLNNDTEVPTASISVEGNPALNRVRWTHSGREIAVGDSEGQIVIYDVGEQIAVPRNDEWARFGRTLAEINANRADAEEEAATRIPA

Tested on: KDM4A-I71AzF
Test: CASI: photo-crosslinking with HEK293T cell extracts, StrepTactin enrichment and LC-MS/MS proteomics;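 also: lysates from HEK293T cells pretreated with a KDM4 inhibitor to raise proteome methylation, affinity-purified after ±UV, gel-resolved, trypsin-digested, with exclusive unique peptides per protein averaged per condition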
Assay type: binding, human
Settings: sheet "Final results but with 0.01"

Molecule	Fold change (+UV/-UV)
B1	1.5
B2	0
B3	1
B4	0
B5	0.4
B6	1.2
B7	1
